In patent publication US20240018268A1 (JUNO THERAPEUTICS, published 2024):

Tests used:
[1] = target: T1, human Fc-fusion protein containing the FMC63-derived scFv portion of the CAR (biotinylated ECD fusion protein … (biotinylated (capture form))); sulfo-tagged (detection form)); experiment: bridge assay, biotinylated scFv-Fc on streptavidin plate, sulfo-tagged scFv-Fc detection, ECL (MSD)
T1 construct: also called FMC63-derived Fc-scFv fusion; not shown: human Fc
Description: A bridge anti-therapeutic antibody (ATA) assay was developed to detect the presence or absence of antibodies, in serum of treated subjects, recognizing administered anti-CD19 CARs. Certain anti-ID antibodies described in Examples 1-3 were used as positive controls and to validate the ability of the assay to detect the presence of such antibodies.
A biotinylated human Fc-fusion protein (biotinylated ECD fusion protein) was used, containing an scFv portion of the CAR with variable regions derived from FMC63 (set forth in SEQ ID NO:34). The biotinylated ECD fusion protein was added to streptavidin-coated wells; the plates were incubated under conditions to allow binding of the fusion protein, and washed. To the biotinylated fusion protein-coated wells, various concentrations of anti-ID B-1 or anti-ID B-2 were added to the wells, and allowed to incubate under conditions to allow specific binding of the antibody. After washing, a sulfo-tagged version of the ECD fusion protein (sulfo-ECD fusion protein) containing the FMC63-derived Fc-scFv fusion. The wells were washed and an electrochemiluminescence (ECL) signal was read on a Meso Scale Discovery (MSD) Sector Imager.

[2] = target: T2, anti-CD19 (SJ25C1-derived) chimeric antigen receptor (CAR), expressed on T cells or Jurkat cells (human, UniProt P10747 153-179; P10747 180-220; P20963 52-163, limits assumed); experiment: flow cytometry, biotin-conjugated antibody and PE-streptavidin on CAR-transduced cells
T2 construct: domain: transmembrane domain;domain: intracellular signaling domain;domain: signaling domain; Whole CAR on the surface of transduced human T cells, PBMCs or Jurkat cells; also called anti-CD19 (SJ25C1) CAR; SJ25C1-derived CAR
Protocol: Hybridoma fusion clones were generated and 12 candidate clones were further characterized by flow cytometry. Peripheral blood mononuclear cells were isolated from human subjects and cells were activated and transduced with a viral vector encoding the anti-CD19 CAR. For flow cytometry, about 1×10⁶ cells per 100 μL were incubated with 10 μL of biotin-conjugated anti-idiotype antibody followed by staining with a PE-conjugated streptavidin. As a positive control for surface expression of the CAR, cells were stained with an anti-EGFR antibody to verify expression of the EGFRt transduction marker, which was a surrogate of CAR expression. […] Cells were gated on CD3⁺ CD4⁺/CD8⁺ PBMCs and fluorescence signal was determined. […] To confirm the antibodies were specific for the scFv derived from the anti-CD19 antibody derived from FMC63, similar experiments were performed on cells transduced with an anti-CD19 CAR derived from SJ25C1 as described in Example 1. […] Anti-idiotype antibody clones B-1 (anti-ID B-1) and B-2 (anti-ID B-2) were selected for further characterization.

[3] = target: T3, anti-CD19 (FMC63-derived) chimeric antigen receptor (CAR), expressed on T cells; experiment: flow cytometry, CAR T cells spiked into human PBMCs
T3 construct: Whole CAR on the surface of transduced human T cells/PBMCs, co-expressed with EGFRt from the same construct (T2A); treated here as one molecule; also called anti-CD19 (FMC63) CAR; FMC63-derived CAR
Protocol: The anti-CD19 CAR expressing cells were spiked in to a sample of cells containing healthy human peripheral blood mononuclear cells (PBMCs). The resulting cell compositions were incubated with different concentrations of the anti-CD19 FMC63 scFv-specific anti-ID B1 or anti-ID B2 antibodies. As a control, samples of each condition were also incubated with a concentration of anti-EGFR antibody, capable of detecting the EGFRt surrogate marker on the transduced cells. Control samples included those only containing the PBMCs without the addition of added CAR− expressing T cells. Geometric mean fluorescence intensity (MFI) was quantified in positively labeled cells to assess antibody staining.

[4] = target: recombinant soluble extracellular domain (ECD) portion of the anti-CD19 (SJ25C1-derived) CAR (human); experiment: ELISA on the recombinant soluble ECD portion; A-1 is the one named clone of the five
[5] = target: T3, anti-CD19 (FMC63-derived) chimeric …; experiment: inferred from a T cell proliferation assay with plate-bound antibody
Protocol: For proliferation studies, engineered T cells were labeled with 50 nM carboxyfluorescein succinimidyl ester (CFSE) or CELL TRACE VIOLET (CTV) dye. Where relevant, expression of the surrogate EGFRt marker was detected by staining with an anti-EGFR antibody. Cells were seeded at a fixed number of cells per well in wells previously coated with 10, 5, 2.5, or 1.25 μg/ml of OKT3 (anti-CD3 antibody), or of anti-idiotype antibodies recognizing SJ25C1 and FMC63 (anti-ID A-land anti-ID B-1, respectively) in sodium carbonate/bicarbonate buffer (pH 9.0) overnight. Cells seeded in wells with no antibody coating were included as negative controls. The cells were cultured for 4 days and assessed for viability, proliferation, and expression of CD69 and CD25.
Proliferation of anti-CD19 (SJ25C1 or FMC63) CAR− expressing T cells was assessed by dye dilution using flow cytometry. The percent of CD3⁺/CFSE® w cells observed following stimulation of anti-CD19 (SJ25C1) CAR− expressing T cells with anti-ID A-1 is shown in FIG. 2A. The percent of CD3⁺/EGFR+/CFSE® W cells observed following stimulation of anti-CD19 (FMC63) CAR− expressing T cells with anti-ID B-1 is shown in FIG. 2B. […]

T2 sequence (P10747 other isoform, or with tags, fused parts or gaps mutant limits assumed): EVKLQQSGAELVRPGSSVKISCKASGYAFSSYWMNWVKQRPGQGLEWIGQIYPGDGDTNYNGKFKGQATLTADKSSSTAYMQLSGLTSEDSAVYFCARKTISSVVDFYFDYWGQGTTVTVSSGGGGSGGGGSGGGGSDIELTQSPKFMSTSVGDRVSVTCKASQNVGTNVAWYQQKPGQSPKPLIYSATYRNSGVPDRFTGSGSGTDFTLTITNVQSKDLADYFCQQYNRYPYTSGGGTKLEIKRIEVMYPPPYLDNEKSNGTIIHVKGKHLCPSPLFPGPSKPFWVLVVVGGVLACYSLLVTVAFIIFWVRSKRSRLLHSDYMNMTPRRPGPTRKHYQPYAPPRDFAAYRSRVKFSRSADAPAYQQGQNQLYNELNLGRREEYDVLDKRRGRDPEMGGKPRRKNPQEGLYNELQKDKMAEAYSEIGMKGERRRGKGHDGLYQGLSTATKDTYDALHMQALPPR
Chain of recombinant soluble extracellular domain (ECD) portion of the anti-CD19 (SJ25C1-derived) CAR (human) (chain, as listed by the source): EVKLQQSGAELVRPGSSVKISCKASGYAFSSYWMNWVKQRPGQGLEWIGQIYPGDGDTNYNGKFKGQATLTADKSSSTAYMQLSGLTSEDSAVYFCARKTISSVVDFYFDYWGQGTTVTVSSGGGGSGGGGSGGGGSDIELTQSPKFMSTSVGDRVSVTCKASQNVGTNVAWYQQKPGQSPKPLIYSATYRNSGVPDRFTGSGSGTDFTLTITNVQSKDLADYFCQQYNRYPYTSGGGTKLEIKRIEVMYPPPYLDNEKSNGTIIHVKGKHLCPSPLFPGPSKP

Row | binding result [1] | binding result [2] | binding result [3] | binding result [4] | binding result [5] | Binder
1 | binds | no binding | binds | – | – | anti-idiotype antibody clone B-2 (anti-ID B-2) (antibody, mouse IgG1, kappa, V domains shown, Mouse hybridoma antibody) VH: QVQLQQPGAELVRPGASVKLSCKTSGYSFTRYWMNWVKQRPGQGLEWIGMIHPSDSETRLNQKFKDKATLTVDNSSSTAYMQLSSPTSEDSAVYYCASIYYEEAWGQGTLVTVSA VL: DIQMTQSPASLSASVGETVTITCRASGNIHNYLAWYQQKQGKSPQLLVYNAKTLADSVPSRFSGSGSGTQYSLKINSLQPEDFGSYYCQHFWSTPYTFGGGTKLEIKR
2 | – | – | – | binds | – | anti-idiotype antibody clone A-1 (anti-ID A-1) (antibody, mouse IgG1, kappa, V domains shown, Mouse hybridoma antibody; also called SJ25C1-derived scFv-specific anti-idiotype antibody; SJ25C1-specific anti-idiotype antibody) VH: QVQLQQPGSELVRPGGSVKLSCKASDYTFTSYWMHWVRQRPGQGLEWIGNIYPGSGGTNYDEKFKRKATLTVDTSSSTAYMQLRSLTSEDSAVYYCTREVTTVAYYYSMDYWGQGTSVTVSS VL: DIQMTQTTSSLSASLGDRVTISCRASQDISNYLNWYQQKPDGTVKLLIYYTSRLHSGVPSRFSGSGSGTDYSLTISNLEQEDIATYFCQQGKTVPFTFGSGTKLEIKR
3 | binds | no binding | – | – | binds | anti-idiotype antibody clone B-1 (anti-ID B-1) (antibody, mouse IgG2a, kappa, V domains shown, Mouse hybridoma antibody; also called FMC63-derived scFv-specific anti-idiotype antibody) VH: EVQLQQSGPELVKPGASVKMSCKASGYTFTDYYMKWVKQCHGKSLEWIGDINPNNGGTDYNQNFKGKATLTVDKSSSTAYMQLNSLTSEDSAVYYCAREGNNYGSRDAMDYWGQGTSVTVSS VL: QIVLTQSPALMSASPGEKVTMTCSASSGVIYMYWYQQKPRSSPKPWIYLTSNLASGVPARFSGSGSGTSYSLTISSMEAEDAATYYCQQWSSNPLTFGAGTKLELKR
